{"source": "patent US7727950B2", "about": "“Methods and reagents for assaying protein kinase activity” (The University of Dundee, priority 2002, dated 2010)", "proteins": {"B1": {"name": "MAPKAP-K3 (Homo sapiens) (protein)", "chain": "MDGETAEEQGGPVPPPVAPGGPGLGGAPGGRREPKKYAVTDDYQLSKQVLGLGVNGKVLECFHRRTGQKCALKLLYDSPKARQEVDHHWQASGGPHIVCILDVYENMHHGKRCLLIIMECMEGGELFSRIQERGDQAFTEREAAEIMRDIGTAIQFLHSHNIAHRDVKPENLLYTSKEKDAVLKLTDFGFAKETTQNALQTPCYTPYYVAPEVLGPEKYDKSCDMWSLGVIMYILLCGFPPFYSNTGQAISPGMKRRIRLGQYGFPNPEWSEVSEDAKQLIRLLLKTDPTERLTITQFMNHPWINQSMVVPQTPLHTARVLQEDKDHWDEVKEEMTSALATMRVDYDQVKIKDLKTSNNRLLNKRRKKQAGSSSASQGCNNQ", "notes": "GST; made in house; host or cells: E. coli"}}, "substrate": "CC(C)C[C@H](NC(=O)[C@@H](NC(=O)[C@H](CCCNC(=N)N)NC(=O)[C@H](C)NC(=O)[C@@H](N)CCCNC(=N)N)[C@@H](C)O)C(=O)N[C@@H](CO)C(=O)N[C@@H](Cc1ccccc1)C(=O)N[C@@H](C)C(=O)N[C@@H](CCC(=O)O)C(=O)N1CCC[C@H]1C(=O)NCC(=O)O", "experiment": "Kinetic parameters for peptide phosphorylation, radioactive filter-binding assay", "type": "biochemical, human", "conditions": "other: MAPKAP-K3; Standard Substrate = …; 30.0 °C", "description": "Apart from the AMP-activated protein kinase (AMPK, a gift from Drs S. Hawley and D. G. Hardie), cGMP-dependent protein kinase (PKG, a generous gift from Drs Susan Lohmann and Ulrich Walter, University of Wurzburg, Germany) and the catalytic subunit of cyclic AMP-dependent protein kinase (PKA, a gift from Dr C. Smythe), which were isolated from rat liver, bovine lung and bovine heart, respectively, all other protein kinases were expressed as either GST-fusion or His-tagged proteins (by a person, a person, Dr A. Paterson or a person, in this Division). The expressed proteins all corresponded to the human sequences apart from the rat Rho-dependent protein kinase (ROCK-II) and rat mitogen-activated protein kinase (MAPK) activated kinase-1a (MAPKAP-K1a, also called RSK). […]\nAll protein kinase assays were linear with respect to time. […] All papers were subsequently washed a further three times in phosphoric acid, once in acetone, then dried and counted for radioactivity. […] The plates were then washed six times (five min per wash) in PBS, 0.1% Tween 20 and binding of the phospho-specific antibody detected by incubating the plates with peroxidase-conjugated anti-sheep antibodies (Pierce). […] Signals were quantitated on LAS-1000IR software (FujiFilm). […]"}
{"protein": "B1", "values": [{"measurement": "Km", "value": 30, "unit": "µM"}]}
